Earlier results as cited in article PMC1297595.

Biological target: CD26 (Homo sapiens) (UniProt P27487)
UniProt P27487, sequence (P27487 39-766): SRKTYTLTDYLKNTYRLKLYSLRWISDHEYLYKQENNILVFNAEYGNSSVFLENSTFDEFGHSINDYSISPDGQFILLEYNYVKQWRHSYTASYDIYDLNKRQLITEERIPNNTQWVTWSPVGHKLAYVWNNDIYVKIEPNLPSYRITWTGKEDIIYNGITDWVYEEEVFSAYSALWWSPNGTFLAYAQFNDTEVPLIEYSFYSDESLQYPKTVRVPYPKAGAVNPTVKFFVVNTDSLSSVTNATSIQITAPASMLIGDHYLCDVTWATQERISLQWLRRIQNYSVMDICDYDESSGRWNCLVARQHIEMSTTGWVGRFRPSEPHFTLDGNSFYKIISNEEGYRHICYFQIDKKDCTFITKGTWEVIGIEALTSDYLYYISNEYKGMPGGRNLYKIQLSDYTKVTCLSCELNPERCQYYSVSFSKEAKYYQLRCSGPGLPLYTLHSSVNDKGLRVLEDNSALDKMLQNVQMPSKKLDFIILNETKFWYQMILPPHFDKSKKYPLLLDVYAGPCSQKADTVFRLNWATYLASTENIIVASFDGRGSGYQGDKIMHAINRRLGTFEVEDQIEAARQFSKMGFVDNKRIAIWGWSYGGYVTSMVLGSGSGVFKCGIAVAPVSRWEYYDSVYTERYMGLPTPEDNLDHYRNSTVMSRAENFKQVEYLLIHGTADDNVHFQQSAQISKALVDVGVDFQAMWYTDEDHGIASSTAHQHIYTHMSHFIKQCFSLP

**Q.** Which Kd does the source give for ADA (from UniProt P00813) here?
**A.** The Kd was 65 nM.
